± gives the standard deviation of the averaged measurements.

The test system of data set [1] is hTERT-HMEC. Description: percentage of EdU-negative (G0-arrested) nuclei per well, 72 h; higher = more G0 arrest. As to conditions: reference: sequence is the full UniProt precursor, the tested protein was the secreted form or ectodomain.
In data set [2] the test system is MCF7. The description is as above. The conditions noted are these: reference: sequence is the full UniProt precursor, the tested protein was the secreted form or ectodomain.
Setting [3] is: protein concentration 0.0225 µM.
Setting [4] is: protein concentration 0.0301575 µM.
The mark [5] stands for this setting: protein concentration 0.301575 µM.
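Also: secreted proteins added to cultured cells, EdU pulse at the end, nuclei found by Hoechst imaging, EdU status from nuclear versus surrounding ring intensity ratio, PBS as neutral control.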

Turning to “MDLRDFYLLAALIACLRLDSAIAQELIYTIREELPENVPIGNIPKDLNISHINAATGTSASLVYRLVSKAGDAPLVKVSSSTGEIFTTSNRIDREKLCAGASYAEENECFFELEVVILPNDFFRLIKIKIIVKDTNDNAPMFPSPVINISIPENTLINSRFPIPSATDPDTGFNGVQHYELLNGQSVFGLDIVETPEGEKWPQLIVQQNLDREQKDTYVMKIKVEDGGTPQKSSTAILQVTVSDVNDNRPVFKEGQVEVHIPENAPVGTSVIQLHATDADIGSNAEIRYIFGAQVAPATKRLFALNNTTGLITVQRSLDREETAIHKVTVLASDGSSTPARATVTINVTDVNDNPPNIDLRYIISPINGTVYLSEKDPVNTKIALITVSDKDTDVNGKVICFIEREVPFHLKAVYDNQYLLETSSLLDYEGTKEFSFKIVASDSGKPSLNQTALVRVKLEDENDNPPIFNQPVIELSVSENNRRGLYLTTISATDEDSGKNADIVYQLGPNASFFDLDRKTGVLTASRVFDREEQERFIFTVTARDNGTPPLQSQAAVIVTVLDENDNSPKFTHNHFQFFVSENLPKYSTVGVITVTDADAGENKAVTLSILNDNDNFVLDPYSGVIKSNVSFDREQQSSYTFDVKATDGGQPPRSSTAKVTINVMDVNDNSPVVISPPSNTSFKLVPLSAIPGSVVAEVFAVDVDTGMNAELKYTIVSGNNKGLFRIDPVTGNITLEEKPAPTDVGLHRLVVNISDLGYPKSLHTLVLVFLYVNDTAGNASYIYDLIRRTMETPLDRNIGDSSQPYQNEDYLTIMIAIIAGAMVVIVVIFVTVLVRCRHASRFKAAQRSKQGAEWMSPNQENKQNKKKKRKKRKSPKSSLLNFVTIEESKPDDAVHEPINGTISLPAELEEQSIGRFDWGPAPPTTFKPNSPDLAKHYKSASPQPAFHLKPDTPVSVKKHHVIQELPLDNTFVGGCDTLSKRSSTSSDHFSASECSSQGGFKTKGPLHTRQCNSHSKSDNIPVTPQKCPSSTGFHIQENEESHYESQRRVTFHLPDGSQESCSDSGLGDHEPVGSGTLISHPLPLVQPQDEFYDQASPDKRTEADGNSDPNSDGPLGPRGLAEATEMCTQECLVLGHSDNCWMPPGLGPYQHPKSPLSTFAPQKEWVKKDKLVNGHTLTRAWKEDSNRNQFNDRKQYGSNEGHFNNGSHMTDIPLANLKSYKQAGGATESPKEHQL [Q9HC56]”, the “percentage of EdU-negative” value in data set [1] (setting [3]) came to 4.64 ± 0.43%; in data set [1] (protein concentration 0.225 µM), 13.4 ± 3.9%; in data set [2] (setting [3]), 25.9 ± 2.1%; in data set [2] (protein concentration 0.225 µM) it was 32.9 ± 2.9%.

Turning to “MWTSGRMSNAKNWLGLGMSLYFWGLMDLTTTVLSDTPTPQGELEALLSDKPQSHQRTKRSWVWNQFFVLEEYTGTDPLYVGKLHSDMDRGDGSIKYILSGEGAGIVFTIDDTTGDIHAIQRLDREERAQYTLRAQALDRRTGRPMEPESEFIIKIQDINDNEPKFLDGPYVATVPEMSPVGTSVIQVTATDADDPTYGNSARVVYSILQGQPYFSVDSKTGVIRTALMNMDREAKEYYEVIIQAKDMGGQLGGLAGTTTVNITLSDVNDNPPRFPQKHYQMSVLESAPISSTVGRVFAKDLDEGINAEMKYTIVDGDGADAFDISTDPNFQVGIITVKKPLSFESKKSYTLKVEGANPHLEMRFLNLGPFQDTTTVHISVEDVDEPPVFEPGFYFVEVPEDVAIGTTIQIISAKDPDVTNNSIRYSIDRSSDPGRFFYVDITTGALMTARPLDREEFSWHNITVLAMEMNNPSQVGSVPVTIKVLDVNDNAPEFPRFYEAFVCENAKAGQLIQTVSAVDQDDPRNGQHFYYSLAPEAANNPNFTIRDNQDNTARILTRRSGFRQQEQSVFHLPILIADSGQPVLSSTGTLTIQVCSCDDDGHVMSCSPEAYMLPVSLSRGALIAILACIFVLLVLVLLILSMRRHRKQPYIIDDEENIHENIVRYDDEGGGEEDTEAFDIAAMWNPREAQAGAAPKTRQDMLPEIESLSRYVPQTCAVNSTVHSYVLAKLYEADMDLWAPPFDSLQTYMFEGDGSVAGSLSSLQSATSDSEQSFDFLTDWGPRFRKLAELYGASEGPAPLW [Q9HBT6]”, the “percentage of EdU-negative” value in data set [1] (setting [3]) stood at 3.9 ± 0.76%; in data set [1] (protein concentration 0.225 µM) it was 50.2 ± 7%; in data set [2] (setting [3]), 28 ± 0.47%; in data set [2] (protein concentration 0.225 µM), 36 ± 0.13%.

Regarding “MLIFWTITLFLLGAAKGKEVCYEDLGCFSDTEPWGGTAIRPLKILPWSPEKIGTRFLLYTNENPNNFQILLLSDPSTIEASNFQMDRKTRFIIHGFIDKGDESWVTDMCKKLFEVEEVNCICVDWKKGSQATYTQAANNVRVVGAQVAQMLDILLTEYSYPPSKVHLIGHSLGAHVAGEAGSKTPGLSRITGLDPVEASFESTPEEVRLDPSDADFVDVIHTDAAPLIPFLGFGTNQQMGHLDFFPNGGESMPGCKKNALSQIVDLDGIWAGTRDFVACNHLRSYKYYLESILNPDGFAAYPCTSYKSFESDKCFPCPDQGCPQMGHYADKFAGRTSEEQQKFFLNTGEASNFARWRYGVSITLSGRTATGQIKVALFGNKGNTHQYSIFRGILKPGSTHSYEFDAKLDVGTIEKVKFLWNNNVINPTLPKVGATKITVQKGEEKTVYNFCSEDTVREDTLLTLTPC”, the “percentage of EdU-negative” value was 5.42 ± 0.23% in data set [1] (setting [4]), 5.14 ± 0.29% in data set [1] (setting [5]), 25.8 ± 0.77% in data set [2] (setting [4]) and 26.6 ± 1.5% in data set [2] (setting [5]).

The record behind these values is the supplement of paper PMC11316812.
